From article PMC6286387, “Physical and thermodynamic characterization of the rice gibberellin receptor/gibberellin/DELLA protein complex” (Scientific Reports, 2018)
Each block holds one molecule with its values, some of them ahead of it.

Key:
OsGID1 = molecular target: T1, OsGID1 (Oryza sativa, UniProt Q6L545); experiment: (method not stated for the binary complex); assay type: binding; conditions: read-out: Kb (converted)
T1 construct: gene GID1; recombinant, purified
T1 sequence (Q6L545 1-354): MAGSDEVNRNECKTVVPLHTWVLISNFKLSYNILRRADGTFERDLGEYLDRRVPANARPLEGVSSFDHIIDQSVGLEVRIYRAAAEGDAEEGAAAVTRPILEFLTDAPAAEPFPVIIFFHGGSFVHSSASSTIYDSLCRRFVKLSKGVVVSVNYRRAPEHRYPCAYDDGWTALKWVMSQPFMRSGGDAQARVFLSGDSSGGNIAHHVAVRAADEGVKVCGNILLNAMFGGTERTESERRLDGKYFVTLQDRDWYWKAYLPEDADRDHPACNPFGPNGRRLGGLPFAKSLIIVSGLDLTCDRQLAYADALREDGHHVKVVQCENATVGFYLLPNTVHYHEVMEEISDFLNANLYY

[1] = molecular target: T2, OsGID1 (rice gibberellin receptor GID1), Trx-free, used as the OsGID1/GA3 complex (rice (Oryza sativa), UniProt Q6L545 1-354); experiment: ITC; 10 μl aliquants of 400 μM OsGID1/GA3 into 1.4482 ml of 50 μM SLR1 variant, 30 °C, 20 mM sodium phosphate (pH 7.5), 150 mM NaCl, 2.0 mM β-ME, 0.1 mM GA3; conditions: both partners purified
T2 construct: Gibberellin receptor GID1 of rice (Oryza sativa); theoretical MW of the dimer printed as 79.2 kDa; The printed mass (39.6 kDa a monomer) fits the whole protein; source: recombinant, purified
T2 sequence (looked up): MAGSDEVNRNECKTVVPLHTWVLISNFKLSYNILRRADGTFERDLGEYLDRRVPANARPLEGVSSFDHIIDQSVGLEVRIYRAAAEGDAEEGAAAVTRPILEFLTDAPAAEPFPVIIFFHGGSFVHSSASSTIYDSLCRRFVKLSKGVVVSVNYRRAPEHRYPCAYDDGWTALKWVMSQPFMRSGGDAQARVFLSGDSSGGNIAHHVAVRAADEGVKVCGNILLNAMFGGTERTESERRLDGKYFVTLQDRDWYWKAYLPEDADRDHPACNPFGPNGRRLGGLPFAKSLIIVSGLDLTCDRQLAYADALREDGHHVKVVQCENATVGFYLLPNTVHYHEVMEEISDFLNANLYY

[2] = molecular target: the molecule itself; experiment: SEC; each protein chromatographed alone on Superdex 200 10/300 GL, 20 mM sodium phosphate (pH 7.5), 150 mM NaCl, 2 mM β-ME, 0.1 mM GA3; size against molecular weight standards
[3] = molecular target: T3, Trx-OsGID1, used as the Trx-OsGID1/GA3 complex (rice (Oryza sativa), UniProt Q6L545 1-354); experiment: SEC; purified Trx-OsGID1 and a Trx-SLR1 truncation mutant incubated together at 4 °C for 30 min with 10^-4 M GA3; Superdex 200 10/300 GL in 20 mM sodium phosphate (pH 7.5), 150 mM NaCl, 2 mM β-ME, 0.1 mM GA3; fractions on SDS-PAGE; conditions: both partners purified
T3 construct: Gibberellin receptor GID1 of rice (Oryza sativa); GA3 (0.1 mM) was present in the gel filtration; also called Trx-GID1/GA3; source: recombinant, purified
T3 sequence (looked up): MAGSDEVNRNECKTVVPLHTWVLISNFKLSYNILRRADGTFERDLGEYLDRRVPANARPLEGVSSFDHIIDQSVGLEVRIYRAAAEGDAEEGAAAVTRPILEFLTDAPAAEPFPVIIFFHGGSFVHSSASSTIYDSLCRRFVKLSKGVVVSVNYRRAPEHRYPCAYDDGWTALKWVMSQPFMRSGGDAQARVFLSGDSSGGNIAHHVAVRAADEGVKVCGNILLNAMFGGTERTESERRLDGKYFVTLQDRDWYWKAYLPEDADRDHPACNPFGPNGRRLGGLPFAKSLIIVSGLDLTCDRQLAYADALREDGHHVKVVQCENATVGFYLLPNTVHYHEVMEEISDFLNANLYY

[4] = molecular target: T2, OsGID1 (rice gibberellin receptor …); experiment: ITC; 10 μl aliquants of 400 μM OsGID1/GA3 into 1.4482 ml of 50 μM SLR1 variant, 30 °C, 20 mM sodium phosphate (pH 7.5), 150 mM NaCl, 2.0 mM β-ME, 0.1 mM GA3; conditions: both partners purified; remark: listed apart in the source
[5] = molecular target: the molecule itself; experiment: ITC; dilution series: 10 μl aliquants of 0.4 mM SLR1(M28-A112) into 1.4482 ml of buffer without OsGID1/GA3, 30 °C; dimer to monomers
[6] = molecular target: T2, OsGID1 (rice gibberellin receptor …); experiment: ITC; twenty 10 μl injections of 400 μM SLR1(M28-A112) into 50 μM OsGID1/GA3, 30 °C, 20 mM sodium phosphate (pH 7.5), 150 mM NaCl, 2.0 mM β-ME, 0.1 mM GA3; conditions: both partners purified

B1: SLR1(M28-A112) ΔSPACE(G69-F83) (domain or fragment, rice (Oryza sativa), UniProt Q7G7J6 28-112, looked up)
chain: MAGAAGEEEDVDELLAALGYKVRSSDMADVAQKLEQLEMAMVSHLATDTVHYNPSDLSSWVESMLSELNA
notes: DELLA protein SLR1 of rice (Oryza sativa), residues M28-A112 with G69-F83 deleted; Named without Trx in the ITC experiments; removal of the tag is told in general in the methods; also called SLR(M28-A112)ΔSPACE; source: E. coli, purified (HiTrap Chelating, Superdex 200; thrombin, HiTrap Chelating, Superdex 75); not shown: Trx, N-terminal, cleaved; His6, N-terminal, cleaved
Ka [1]: 390000 M⁻¹

B2: SLR1(M1-A172) (domain or fragment, rice (Oryza sativa), UniProt Q7G7J6 1-172, looked up)
chain: MKREYQEAGGSSGGGSSADMGSCKDKVMAGAAGEEEDVDELLAALGYKVRSSDMADVAQKLEQLEMAMGMGGVSAPGAADDGFVSHLATDTVHYNPSDLSSWVESMLSELNAPLPPIPPAPPAARHASTSSTVTGGGGSGFFELPAAADSSSSTYALRPISLPVVATADPSA
notes: DELLA protein SLR1 of rice (Oryza sativa), residues M1-A172; Named without Trx in the ITC experiments; removal of the tag is told in general in the methods; also called SLR(M1-A172); source: E. coli, purified (HiTrap Chelating, Superdex 200; thrombin, HiTrap Chelating, Superdex 75); not shown: Trx, N-terminal, cleaved; His6, N-terminal, cleaved
Ka [1]: 2.8e+07 M⁻¹

B3: Trx-SLR1(M28-A112) (domain or fragment, rice (Oryza sativa), UniProt Q7G7J6 28-112, looked up)
chain: MAGAAGEEEDVDELLAALGYKVRSSDMADVAQKLEQLEMAMGMGGVSAPGAADDGFVSHLATDTVHYNPSDLSSWVESMLSELNA
notes: DELLA protein SLR1 of rice (Oryza sativa), residues M28-A112; theoretical monomeric MW of the fusion 29.3 kDa; Thioredoxin-hexahistidine fusion from the vector pDEST-trx; source: E. coli, purified (HiTrap Chelating, Superdex 200); not shown: Trx, N-terminal, kept; His6, N-terminal, kept
stoichiometry N [2]: 2
stoichiometry N [3]: 1

B4: SLR1(M28-A112), Trx-free (domain or fragment, rice (Oryza sativa), UniProt Q7G7J6 28-112, looked up)
chain: MAGAAGEEEDVDELLAALGYKVRSSDMADVAQKLEQLEMAMGMGGVSAPGAADDGFVSHLATDTVHYNPSDLSSWVESMLSELNA
notes: DELLA protein SLR1 of rice (Oryza sativa), residues M28-A112; 13C/15N-labelled for the NMR spectra; also called SLR(M28-A112); source: E. coli, purified (HiTrap Chelating, Superdex 200; thrombin, HiTrap Chelating, Superdex 75); not shown: Trx, N-terminal, cleaved; His6, N-terminal, cleaved
Ka [4]: 1.1e+07 M⁻¹
Kd [5]: 1.6 mM
dH [5]: -66 kcal/mol
Ka [1]: 2.9e+07 M⁻¹
Ka [6]: 1.2e+07 M⁻¹
dH [6]: -8.75 kcal/mol
stoichiometry N [6]: 0.88

B5: SLR1(M1-H327) (domain or fragment, rice (Oryza sativa), UniProt Q7G7J6 1-327, looked up)
chain: MKREYQEAGGSSGGGSSADMGSCKDKVMAGAAGEEEDVDELLAALGYKVRSSDMADVAQKLEQLEMAMGMGGVSAPGAADDGFVSHLATDTVHYNPSDLSSWVESMLSELNAPLPPIPPAPPAARHASTSSTVTGGGGSGFFELPAAADSSSSTYALRPISLPVVATADPSAADSARDTKRMRTGGGSTSSSSSSSSSLGGGASRGSVVEAAPPATQGAAAANAPAVPVVVVDTQEAGIRLVHALLACAEAVQQENFAAAEALVKQIPTLAASQGGAMRKVAAYFGEALARRVYRFRPADSTLLDAAFADLLHAHFYESCPYLKFAH
notes: DELLA protein SLR1 of rice (Oryza sativa), residues M1-H327; Named without Trx in the ITC experiments; removal of the tag is told in general in the methods; also called SLR(M1-H327); source: E. coli, purified (HiTrap Chelating, Superdex 200; thrombin, HiTrap Chelating, Superdex 75); not shown: Trx, N-terminal, cleaved; His6, N-terminal, cleaved
Ka [1]: 2e+06 M⁻¹

B6: Trx-SLR1(M1-E104) (domain or fragment, rice (Oryza sativa), UniProt Q7G7J6 1-104, looked up)
chain: MKREYQEAGGSSGGGSSADMGSCKDKVMAGAAGEEEDVDELLAALGYKVRSSDMADVAQKLEQLEMAMGMGGVSAPGAADDGFVSHLATDTVHYNPSDLSSWVE
notes: DELLA protein SLR1 of rice (Oryza sativa), residues M1-E104; Thioredoxin-hexahistidine fusion from the vector pDEST-trx; source: E. coli, purified (HiTrap Chelating, Superdex 200); not shown: Trx, N-terminal, kept; His6, N-terminal, kept
stoichiometry N [2]: 2

B7: Trx-SLR1(M1-L110) (domain or fragment, rice (Oryza sativa), UniProt Q7G7J6 1-110, looked up)
chain: MKREYQEAGGSSGGGSSADMGSCKDKVMAGAAGEEEDVDELLAALGYKVRSSDMADVAQKLEQLEMAMGMGGVSAPGAADDGFVSHLATDTVHYNPSDLSSWVESMLSEL
notes: DELLA protein SLR1 of rice (Oryza sativa), residues M1-L110; Thioredoxin-hexahistidine fusion from the vector pDEST-trx; source: E. coli, purified (HiTrap Chelating, Superdex 200); not shown: Trx, N-terminal, kept; His6, N-terminal, kept
binding result [2]: binds
binding result [3]: binds

Next, values leading:

Kd (OsGID1): 192 nM
Molecule: C=C1C[C@]23C[C@H]1CC[C@H]2[C@@]12CC[C@H](O)[C@@](C)(C(=O)O1)[C@H]2[C@@H]3C(=O)O [GA4]

Kd (OsGID1): 3570 nM
Molecule: C=C1C[C@]23C[C@@]1(O)CC[C@H]2[C@@]12C=C[C@H](O)[C@@](C)(C(=O)O1)[C@H]2[C@@H]3C(=O)O [GA3]

Kd (OsGID1): 1920 nM
Molecule: C=C1C[C@]23C[C@@]1(O)CC[C@H]2[C@@]12CC[C@H](O)[C@@](C)(C(=O)O1)[C@H]2[C@@H]3C(=O)O [GA1]

Kd (OsGID1): 238 nM
Molecule: C=C1C[C@]23C[C@H]1CC[C@H]2[C@@]12C=C[C@H](O)[C@@](C)(C(=O)O1)[C@H]2[C@@H]3C(=O)O [GA7]
